Test [1] has as its target MBP^V8G/Y283D (E. coli) [MBP: P0AEX9]. Nature of the test: ITC. In general terms: In ITC the heat of successive injections is recorded.
Test [2] concerns the target biotin-labeled MBP (E. coli) [MBP: P0AEX9]. In words: BLI. (In general: BLI is a label-free optical method that tracks binding on a fibre tip over time.)

pKd: −log10 of the molar value.

Sequence of SecB (P0AG86 whole entry): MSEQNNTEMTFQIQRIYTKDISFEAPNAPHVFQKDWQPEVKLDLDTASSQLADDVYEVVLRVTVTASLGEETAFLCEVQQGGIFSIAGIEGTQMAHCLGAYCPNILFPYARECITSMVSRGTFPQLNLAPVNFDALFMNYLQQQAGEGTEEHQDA
Sequence of Trigger Factor (TF) (P0A850 whole entry): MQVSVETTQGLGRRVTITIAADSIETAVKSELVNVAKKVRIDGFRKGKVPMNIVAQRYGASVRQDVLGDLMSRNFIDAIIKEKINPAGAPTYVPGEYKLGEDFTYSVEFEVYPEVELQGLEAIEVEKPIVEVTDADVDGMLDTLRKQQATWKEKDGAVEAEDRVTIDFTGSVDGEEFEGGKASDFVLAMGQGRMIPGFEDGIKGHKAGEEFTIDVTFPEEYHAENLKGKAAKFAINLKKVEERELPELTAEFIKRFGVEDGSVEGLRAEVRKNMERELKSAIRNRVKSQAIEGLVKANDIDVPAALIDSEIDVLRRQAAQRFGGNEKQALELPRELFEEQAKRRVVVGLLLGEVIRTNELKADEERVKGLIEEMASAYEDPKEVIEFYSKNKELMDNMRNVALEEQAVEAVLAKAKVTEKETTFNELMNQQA

The term pKd denotes the negative decadic logarithm of the Kd, by convention in mol/L. Lower therefore signals a large Kd. By koff is commonly meant the rate constant with which the complex falls apart. Low readings indicate slow dissociation, high ones fast dissociation. Substance “SecB (from UniProt P0AG86 1-155) (natural protein)” showed a pKd in test [1] of 1.30. Further, the koff in test [2] amounted to 0.01 s⁻¹.
For “Trigger Factor (TF) (from UniProt P0A850 1-432) (natural protein)”, the koff in test [2] stood at 0.05 s⁻¹.

These data come from publication PMC5161705.
